From article PMC11274882, “RNA Binding Properties of SOX Family Members” come the findings set out here.

One may read the Kd as a measure of binding affinity in units of concentration.

The target of series [1] is T1, SOX30 HMG-box (UniProt O94993 335-423).
T1 sequence: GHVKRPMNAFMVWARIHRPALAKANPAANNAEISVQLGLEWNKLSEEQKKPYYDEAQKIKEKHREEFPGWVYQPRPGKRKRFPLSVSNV
The series can be described thus: fluorescence polarisation; FP: 50 mM Tris, 125 mM NaCl, pH 8.0, 80 nM RNA, temperature not stated; EMSA: equal volumes of 100 uM protein and ssDNA, room temperature 15 min, 1.5% agarose. The conditions noted are these: protein: recombinant; tags: 6xHis; label: 3' FAM; hairpin. Background: Polarisation of emitted light reports the rotation of a fluorescent probe.

Series [2] has as its target T2, SOX17 dC HMG-box (UniProt Q9H6I2 66-137). The description is as above. The conditions noted are these: protein: recombinant; tags: 6xHis; label: 3' FAM; hairpin.
The target of series [3] is T3, SOX2 HMG-box (UniProt P48431 39-127). The series is described as above. The conditions noted are these: protein: recombinant; label: 3' FAM; hairpin.
The target in series [4] is T4, SOX17 dCN HMG-box (UniProt Q9H6I2 74-137). Described as above. The conditions noted are these: protein: recombinant; tags: 6xHis; label: 3' FAM; hairpin.
Series [5] addresses T5, SOX17 HMG-box WT (UniProt Q9H6I2 66-145). Described as above. The conditions noted are these: protein: recombinant; tags: 6xHis; label: 3' FAM; hairpin.
The target in series [6] is T1, SOX30 HMG-box. The series can be described thus: EMSA; FP: 50 mM Tris, 125 mM NaCl, pH 8.0, 80 nM RNA, temperature not stated; EMSA: equal volumes of 100 uM protein and ssDNA, room temperature 15 min, 1.5% agarose. The conditions noted are these: protein: recombinant; tags: 6xHis; named 60-mer; length as printed may differ. In general terms: Mobility shift assays separate free from complexed probe on a gel.

The next series addresses SRY HMG-box (UniProt Q05066 58-140). The series is described as above. The conditions noted are these: protein: recombinant; tags: 6xHis; named 60-mer; length as printed may differ.
Another series deals with SOX15 HMG-box (UniProt O60248 47-135). Described as above. The conditions noted are these: protein: recombinant; tags: 6xHis; named 60-mer; length as printed may differ.
In series [7] the target is T5, SOX17 HMG-box WT. The series is described as above. The conditions noted are these: protein: recombinant, tags: 6xHis.
Another series deals with SOX11 HMG-box (UniProt P35716 47-135). Described as above. The conditions noted are these: protein: recombinant; tags: 6xHis; named 60-mer; length as printed may differ.
The target of the next series is SOX9 HMG-box (UniProt P48436 103-183). The description is as above. The conditions noted are these: protein: recombinant; tags: 6xHis; named 60-mer; length as printed may differ.
The next series concerns the target SOX6 HMG-box (UniProt P35712 619-707). Described as above. The conditions noted are these: protein: recombinant; named 60-mer; length as printed may differ.
Another series addresses SOX21 HMG-box (UniProt Q9Y651 6-94). In words: EMSA; complex stays in well; FP: 50 mM Tris, 125 mM NaCl, pH 8.0, 80 nM RNA, temperature not stated; EMSA: equal volumes of 100 uM protein and ssDNA, room temperature 15 min, 1.5% agarose. The conditions noted are these: protein: recombinant; tags: 6xHis; named 60-mer; length as printed may differ.
Series [8] addresses T3, SOX2 HMG-box. Described as above. The conditions noted are these: protein: recombinant; named 60-mer; length as printed may differ.
Series [9] addresses T2, SOX17 dC HMG-box. The series can be described thus: EMSA; FP: 50 mM Tris, 125 mM NaCl, pH 8.0, 80 nM RNA, temperature not stated; EMSA: equal volumes of 100 uM protein and ssDNA, room temperature 15 min, 1.5% agarose. The conditions noted are these: protein: recombinant; tags: 6xHis.
Series [10] deals with T4, SOX17 dCN HMG-box. The series is described as above. The conditions noted are these: protein: recombinant; tags: 6xHis.
The target of another series is SOX17 dN HMG-box (UniProt Q9H6I2 74-145). The series is described as above. The conditions noted are these: protein: recombinant; tags: 6xHis.
Series [11] concerns the target T5, SOX17 HMG-box WT. The series can be described thus: NMR HSQC titration; 100 uM protein, 25-100 uM ssDNA; shifts at R125-R138, I68, A74, M76, E97, K100, W106; FP: 50 mM Tris, 125 mM NaCl, pH 8.0, 80 nM RNA, temperature not stated; EMSA: equal volumes of 100 uM protein and ssDNA, room temperature 15 min, 1.5% agarose. The conditions noted are these: protein: recombinant; tags: 6xHis.

T5 sequence (Q9H6I2 66-145): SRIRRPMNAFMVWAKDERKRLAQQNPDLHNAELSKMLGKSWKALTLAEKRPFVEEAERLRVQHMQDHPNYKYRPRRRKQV
T4 sequence (Q9H6I2 74-137): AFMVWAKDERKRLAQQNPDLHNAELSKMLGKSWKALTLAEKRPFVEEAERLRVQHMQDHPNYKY
T3 sequence (P48431 39-127): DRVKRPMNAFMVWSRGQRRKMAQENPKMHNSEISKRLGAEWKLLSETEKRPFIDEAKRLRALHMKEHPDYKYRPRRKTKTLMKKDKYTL
T2 sequence (Q9H6I2 66-137): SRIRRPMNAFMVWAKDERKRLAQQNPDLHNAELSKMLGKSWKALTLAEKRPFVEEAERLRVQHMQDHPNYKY
Chain of SOX21 HMG-box (Q9Y651 6-94): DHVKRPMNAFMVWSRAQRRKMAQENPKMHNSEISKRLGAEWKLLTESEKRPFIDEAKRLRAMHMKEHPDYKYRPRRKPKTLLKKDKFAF
Chain of SOX9 HMG-box (P48436 103-183): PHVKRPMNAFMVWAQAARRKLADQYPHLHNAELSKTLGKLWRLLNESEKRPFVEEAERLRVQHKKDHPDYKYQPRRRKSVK
Chain of SOX6 HMG-box (P35712 619-707): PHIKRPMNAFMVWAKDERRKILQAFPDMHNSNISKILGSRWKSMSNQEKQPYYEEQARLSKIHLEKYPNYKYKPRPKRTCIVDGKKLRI
Chain of SRY HMG-box (Q05066 58-140): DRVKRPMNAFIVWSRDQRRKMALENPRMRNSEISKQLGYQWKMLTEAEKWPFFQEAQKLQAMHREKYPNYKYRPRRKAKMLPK
Chain of SOX17 dN HMG-box (Q9H6I2 74-145): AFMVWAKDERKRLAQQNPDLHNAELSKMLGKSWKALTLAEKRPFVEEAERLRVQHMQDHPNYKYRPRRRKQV
Chain of SOX11 HMG-box (P35716 47-135): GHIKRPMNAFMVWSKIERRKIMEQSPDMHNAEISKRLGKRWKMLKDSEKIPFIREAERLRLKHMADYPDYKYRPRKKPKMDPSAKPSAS
Chain of SOX15 HMG-box (O60248 47-135): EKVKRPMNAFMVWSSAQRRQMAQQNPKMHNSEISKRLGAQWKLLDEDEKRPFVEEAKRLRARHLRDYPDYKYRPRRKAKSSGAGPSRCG

Regarding GGUCGCCGUGGCCACUUCGAAAGGGGUGGAAAGGGCGACC (structured_RNA) [40-mer RNA, ES2 lncRNA hairpin Loop A], the binding result with SOX30 HMG-box [1], with SOX17 dC HMG-box [2] and in the series with SOX17 dCN HMG-box [4] was “no binding” each time. The Kd was approximately 57 nM with SOX2 HMG-box [3] and approximately 327 nM in the series with SOX17 HMG-box WT [5].

B1: 60-mer ssDNA (ssDNA)
DNA: GTTAGAGGTGCCCCACAGGCGGCGGTTAGTATTCCCCGCCGCCTGGGGCACCGGGGCAC
With B1, the binding result with SOX30 HMG-box [6] is on record as “no binding”; with SRY HMG-box it was “binds”; with SOX15 HMG-box, “binds”; with SOX17 HMG-box WT [7] (named 60-mer, length as printed may differ), “binds”; with SOX11 HMG-box, “binds”; with SOX9 HMG-box it was “binds”. Besides, the binding result with SOX6 HMG-box, with SOX21 HMG-box and in the series with SOX2 HMG-box [8] was “binds” throughout.

In the case of CCCCATCTTAGTATATTAGTTA (ssDNA) [22-mer ssDNA], the binding result is “no binding” in the series with SOX17 dC HMG-box [9], “no binding” with SOX17 dCN HMG-box [10], “binds” in the series with SOX17 dN HMG-box and “binds” with SOX17 HMG-box WT [7].

With ATCGATCGATCG (ssDNA) [12-mer ssDNA], in the series with SOX17 HMG-box WT [11], the binding result is recorded as “binds”.
